Values quoted from earlier work in paper PMC6829319.

Biological target: CdiA toxin (Escherichia coli) (UniProt Q0T963)
Sequence (Q0T963 3016-3242): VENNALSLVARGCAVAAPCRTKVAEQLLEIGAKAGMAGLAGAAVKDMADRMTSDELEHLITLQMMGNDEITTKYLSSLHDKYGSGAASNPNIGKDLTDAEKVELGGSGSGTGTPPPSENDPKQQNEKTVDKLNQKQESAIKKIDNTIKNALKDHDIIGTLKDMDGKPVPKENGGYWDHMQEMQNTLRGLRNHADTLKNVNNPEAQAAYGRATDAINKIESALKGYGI

Chain of CysK (P0ABK5 2-323): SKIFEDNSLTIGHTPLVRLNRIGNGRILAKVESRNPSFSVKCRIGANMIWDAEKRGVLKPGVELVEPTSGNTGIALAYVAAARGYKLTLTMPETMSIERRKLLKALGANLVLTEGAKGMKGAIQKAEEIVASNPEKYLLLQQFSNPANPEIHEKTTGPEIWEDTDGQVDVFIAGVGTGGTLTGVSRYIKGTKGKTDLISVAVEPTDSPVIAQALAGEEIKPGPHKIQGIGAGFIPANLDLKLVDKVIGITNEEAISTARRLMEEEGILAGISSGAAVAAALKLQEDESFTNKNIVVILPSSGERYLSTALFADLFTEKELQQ

## CysK (from UniProt P0ABK5)
  Kd: 5 nM
